Measured values taken from the supplement of paper PMC5998384.

How the values were obtained:
[1] = system: HeLa Kyoto; experiment: thermal stability score vs G1/S (z-score of summed log2 fold changes over temperatures); higher = more thermally stable than in G1/S
[2] = system: HeLa Kyoto; experiment: melting temperature (median over replicates), in situ; higher = more thermally stable
[3] = cell cycle stage: early G1 (4.5 h after nocodazole release)
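Throughout, for melting temperature (median over replicates), in situ: HeLa Kyoto cells synchronized by double thymidine or nocodazole block, proteins quantified by TMT10plex mass spectrometry, three independent biological replicates.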
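Throughout, for thermal stability score vs G1/S (z-score of summed log2 fold changes over temperatures): synchronized HeLa Kyoto cells, proteins quantified by TMT10plex mass spectrometry, three biological replicates, mitosis taken 0.5 h after nocodazole release, G1/S directly after double thymidine block.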

Chain of MSRB2 (chain, as listed by the source): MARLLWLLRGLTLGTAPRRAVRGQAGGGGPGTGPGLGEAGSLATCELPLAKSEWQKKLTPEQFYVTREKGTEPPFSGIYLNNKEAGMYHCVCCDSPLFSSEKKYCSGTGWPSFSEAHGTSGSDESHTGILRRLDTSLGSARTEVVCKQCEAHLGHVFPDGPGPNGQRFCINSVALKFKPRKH
Chain of GORASP1 (chain, as listed by the source): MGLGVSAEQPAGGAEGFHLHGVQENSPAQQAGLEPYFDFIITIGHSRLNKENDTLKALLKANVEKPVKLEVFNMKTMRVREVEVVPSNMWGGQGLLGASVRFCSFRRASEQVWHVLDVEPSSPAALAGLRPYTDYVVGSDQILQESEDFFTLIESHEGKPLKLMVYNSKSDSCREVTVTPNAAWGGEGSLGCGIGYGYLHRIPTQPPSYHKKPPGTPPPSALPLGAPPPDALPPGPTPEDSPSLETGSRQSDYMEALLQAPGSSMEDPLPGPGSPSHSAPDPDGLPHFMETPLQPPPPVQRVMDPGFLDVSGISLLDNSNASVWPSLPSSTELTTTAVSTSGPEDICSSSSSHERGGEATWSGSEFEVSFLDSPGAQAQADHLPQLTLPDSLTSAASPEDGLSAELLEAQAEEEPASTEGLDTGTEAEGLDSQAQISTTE

Substance	thermal stability score [1, 3]	thermal stability score ([1]; cell cycle stage: mitosis)	melting temperature ([2]; cell cycle stage: G1/S) [°C]	melting temperature ([2]; cell cycle stage: mitosis) [°C]
MKLPIFIADAFTARAFRGNPAAVCLLENELDEDMHQKIAREMNLSETAFIRKLHPTDNFAQSSCFGLRWFTPASEVPLCGHATLASAAVLFHKIKNMNSTLTFVTLSGELRARRAEDGIVLDLPLYPAHPQDFHEVEDLIKTAIGNTLVQDICYSPDTQKLLVRLSDVYNRSFLENLKVNTENLLQVENTGKVKGLILTLKGEPGGQTQAFDFYSRYFAPWVGVAEDPVTGSAHAVLSSYWSQHLGKKEMHAFQCSHRGGELGISLRPDGRVDIRGGAAVVLEGTLTA [PBLD]	-0.159	0.989		
MGKNKLLHPSLVLLLLVLLPTDASVSGKPQYMVLVPSLLHTETTEKGCVLLSYLNETVTVSASLESVRGNRSLFTDLEAENDVLHCVAFAVPKSSSNEEVMFLTVQVKGPTQEFKKRTTVMVKNEDSLVFVQTDKSIYKPGQTVKFRVVSMDENFHPLNELIPLVYIQDPKGNRIAQWQSFQLEGGLKQFSFPLSSEPFQGSYKVVVQKKSGGRTEHPFTVEEFVLPKFEVQVTVPKIITILEEEMNVSVCGLYTYGKPVPGHVTVSICRKYSDASDCHGEDSQAFCEKFSGQLNSHGCFYQQVKTKVFQLKRKEYEMKLHTEAQIQEEGTVVELTGRQSSEITRTITKLSFVKVDSHFRQGIPFFGQVRLVDGKGVPIPNKVIFIRGNEANYYSNATTDEHGLVQFSINTTNVMGTSLTVRVNYKDRSPCYGYQWVSEEHEEAHHTAYLVFSPSKSFVHLEPMSHELPCGHTQTVQAHYILNGGTLLGLKKLSFYYLIMAKGGIVRTGTHGLLVKQEDMKGHFSISIPVKSDIAPVARLLIYAVLPTGDVIGDSAKYDVENCLANKVDLSFSPSQSLPASHAHLRVTAAPQSVCALRAVDQSVLLMKPDAELSASSVYNLLPEKDLTGFPGPLNDQDNEDCINRHNVYINGITYTPVSSTNEKDMYSFLEDMGLKAFTNSKIRKPKMCPQLQQYEMHGPEGLRVGFYESDVMGRGHARLVHVEEPHTETVRKYFPETWIWDLVVVNSAGVAEVGVTVPDTITEWKAGAFCLSEDAGLGISSTASLRAFQPFFVELTMPYSVIRGEAFTLKATVLNYLPKCIRVSVQLEASPAFLAVPVEKEQAPHCICANGRQTVSWAVTPKSLGNVNFTVSAEALESQELCGTEVPSVPEHGRKDTVIKPLLVEPEGLEKETTFNSLLCPSGGEVSEELSLKLPPNVVEESARASVSVLGDILGSAMQNTQNLLQMPYGCGEQNMVLFAPNIYVLDYLNETQQLTPEIKSKAIGYLNTGYQRQLNYKHYDGSYSTFGERYGRNQGNTWLTAFVLKTFAQARAYIFIDEAHITQALIWLSQRQKDNGCFRSSGSLLNNAIKGGVEDEVTLSAYITIALLEIPLTVTHPVVRNALFCLESAWKTAQEGDHGSHVYTKALLAYAFALAGNQDKRKEVLKSLNEEAVKKDNSVHWERPQKPKAPVGHFYEPQAPSAEVEMTSYVLLAYLTAQPAPTSEDLTSATNIVKWITKQQNAQGGFSSTQDTVVALHALSKYGAATFTRTGKAAQVTIQSSGTFSSKFQVDNNNRLLLQQVSLPELPGEYSMKVTGEGCVYLQTSLKYNILPEKEEFPFALGVQTLPQTCDEPKAHTSFQISLSVSYTGSRSASNMAIVDVKMVSGFIPLKPTVKMLERSNHVSRTEVSSNHVLIYLDKVSNQTLSLFFTVLQDVPVRDLKPAIVKVYDYYETDEFAIAEYNAPCSKDLGNA [A2M]	-2.38	-0.965		
MEERERGARSAGAGSPARPPSPRLDVSSDSFDPLLALYAPRLPPIPYPNAPCFNNVAEYESFLRTGVRGGGRGRGRARGAAAGSGVPAAPGPSGRTRRRPDAPAPDPERIQRLRRLMVAKEEGDGAAGAGRRGPGRSRKAPRNVLTRMPLHEGSPLGELHRCIREGVKVNVHIRTFKGLRGVCTGFLVAFDKFWNMALTDVDETYRKPVLGKAYERDSSLTLTRLFDRLKLQDSSKKEADSKSAVEDSTLSRYSQTSTWKLASVWGRADTGRGSHKRSRSVPSSLQASAREESRSELSGRTTRTDGSSVGGTFSRATTLSRGQSRKKKRKPKVDYQQVFTRHINQIFIRGENVLLVHLAQ [LSM11]	0.976	0.837		
MAAAEEGCSVGAEADRELEELLESALDDFDKAKPSPAPPSTTTAPDASGPQKRSPGDTAKDALFASQEKFFQELFDSELASQATAEFEKAMKELAEEEPHLVEQFQKLSEAAGRVGSDMTSQQEFTSCLKETLSGLAKNATDLQNSSMSEEELTKAMEGLGMDEGDGEGNILPIMQSIMQNLLSKDVLYPSLKEITEKYPEWLQSHRESLPPEQFEKYQEQHSVMCKICEQFEAETPTDSETTQKARFEMVLDLMQQLQDLGHPPKELAGEMPPGLNFDLDALNLSGPPGASGEQCLIM [G3V3G9|DCAF8]	0.212	-1		
MNPGFDLSRRNPQEDFELIQRIGSGTYGDVYKARNVNTGELAAIKVIKLEPGEDFAVVQQEIIMMKDCKHPNIVAYFGSYLRRDKLWICMEFCGGGSLQDIYHVTGPLSELQIAYVSRETLQGLYYLHSKGKMHRDIKGANILLTDNGHVKLADFGVSAQITATIAKRKSFIGTPYWMAPEVAAVERKGGYNQLCDLWAVGITAIELAELQPPMFDLHPMRALFLMTKSNFQPPKLKDKMKWSNSFHHFVKMALTKNPKKRPTAEKLLQHPFVTQHLTRSLAIELLDKVNNPDHSTYHDFDDDDPEPLVAVPHRIHSTSRNVREEKTRSEITFGQVKFDPPLRKETEPHHELPDSDGFLDSSEEIYYTARSNLDLQLEYGQGHQGGYFLGANKSLLKSVEEELHQRGHVAHLEDDEGDDDESKHSTLKAKIPPPLPPKPKSIFIPQEMHSTEDENQGTIKRCPMSGSPAKPSQVPPRPPPPRLPPHKPVALGNGMSSFQLNGERDGSLCQQQNEHRGTNLSRKEKKDVPKPISNGLPPTPKVHMGACFSKVFNGCPLKIHCASSWINPDTRDQYLIFGAEEGIYTLNLNELHETSMEQLFPRRCTWLYVMNNCLLSISGKASQLYSHNLPGLFDYARQMQKLPVAIPAHKLPDRILPRKFSVSAKIPETKWCQKCCVVRNPYTGHKYLCGALQTSIVLLEWVEPMQKFMLIKHIDFPIPCPLRMFEMLVVPEQEYPLVCVGVSRGRDFNQVVRFETVNPNSTSSWFTESDTPQTNVTHVTQLERDTILVCLDCCIKIVNLQGRLKSSRKLSSELTFDFQIESIVCLQDSVLAFWKHGMQGRSFRSNEVTQEISDSTRIFRLLGSDRVVVLESRPTDNPTANSNLYILAGHENSY [MAP4K3]	0.473	0.693		
GORASP1	0.552	0.301		
DENND4B	-0.499	-0.617		
MEEKQILCVGLVVLDVISLVDKYPKEDSEIRCLSQRWQRGGNASNSCTVLSLLGAPCAFMGSMAPGHVADFLVADFRRRGVDVSQVAWQSKGDTPSSCCIINNSNGNRTIVLHDTSLPDVSATDFEKVDLTQFKWIHIEGRNASEQVKMLQRIDAHNTRQPPEQKIRVSVEVEKPREELFQLFGYGDVVFVSKDVAKHLGFQSAEEALRGLYGRVRKGAVLVCAWAEEGADALGPDGKLLHSDAFPPPRVVDTLGAGDTFNASVIFSLSQGRSVQEALRFGCQVAGKKCGLQGFDGIV [KHK]			54.2	
MASRWWRWRRGCSWKPAARSPGPGSPGRAGPLGPSAAAEVRAQVHRRKGLDLSQIPYINLVKHLTSACPNVCRISRFHHTTPDSKTHSGEKYTDPFKLGWRDLKGLYEDIRKELLISTSELKEMSEYYFDGKGKAFRPIIVALMARACNIHHNNSRHVQASQRAIALIAEMIHTASLVHDDVIDDASSRRGKHTVNKIWGEKKAVLAGDLILSAASIALARIGNTTVISILTQVIEDLVRGEFLQLGSKENENERFAHYLEKTFKKTASLIANSCKAVSVLGCPDPVVHEIAYQYGKNVGIAFQLIDDVLDFTSCSDQMGKPTSADLKLGLATGPVLFACQQFPEMNAMIMRRFSLPGDVDRARQYVLQSDGVQQTTYLAQQYCHEAIREISKLRPSPERDALIQLSEIVLTRDK [PDSS1]				51.7
MSRB2			52.4	52.6
MAGAGPTMLLREENGCCSRRQSSSSAGDSDGEREDSAAERARQQLEALLNKTMRIRMTDGRTLVGCFLCTDRDCNVILGSAQEFLKPSDSFSAGEPRVLGLAMVPGHHIVSIEVQRESLTGPPYL [NAA38]			52.1	52.4
MAPRGRKRKAEAAVVAVAEKREKLANGGEGMEEATVVIEHCTSURVYGRNAAALSQALRLEAPELPVKVNPTKPRRGSFEVTLLRPDGSSAELWTGIKKGPPRKLKFPEPQEVVEELKKYLS [C11ORF31]				52.2
MGKEKTHINIVVIGHVDSGKSTTTGHLIYKCGGIDKRTIEKFEKEAAEMGKGSFKYAWVLDKLKAERERGITIDISLWKFETSKYYVTIIDAPGHRDFIKNMITGTSQADCAVLIVAAGVGEFEAGISKNGQTREHALLAYTLGVKQLIVGVNKMDSTEPPYSQKRYEEIVKEVSTYIKKIGYNPDTVAFVPISGWNGDNMLEPSANMPWFKGWKVTRKDGNASGTTLLEALDCILPPTRPTDKPLRLPLQDVYKIGGIGTVPVGRVETGVLKPGMVVTFAPVNVTTEVKSVEMHHEALSEALPGDNVGFNVKNVSVKDVRRGNVAGDSKNDPPMEAAGFTAQVIILNHPGQISAGYAPVLDCHTAHIACKFAELKEKIDRRSGKKLEDGPKFLKSGDAAIVDMVPGKPMCVESFSDYPPLGRFAVRDMRQTVAVGVIKAVDKKAAGAGKVTKSAQKAQKAK [EEF1A1]			52.4	52.4
MKKTPVFLESLVTNMLRLRAICPFSWRVFQFRPISCEPLIIQMNKCTDEEQMFGFIERNKAILSEKQVGCAFDMLWKLQKQKTSLLKNAEYVRDHPQFLTLHNLATNKFKLMNDDTLVNVLYVTQQFAGEAHDPLVEALVTEAWRRLERFDIKLLSEFSSCLADQHLYFSPLMGKIADIVHRNLETTQDLSSLSVLMVNISSLISRHFQQQLVNKTELLFDTIDSSEVNVAKSIAKFLRNVRYRYQPLLERCNNVFLSNVDHLDLDSISKILSVYKFLQFNSFEFIIMAKKKLTEMIPLCNHPASFVKLFVALGPIAGPEEKKQLKSTMLLMSEDLTGEQALAVLGAMGDMESRNSCLIKRVTSVLHKHLDGYKPLELLKITQELTFLHFQRKEFFAKLRELLLSYLKNSFIPTEVSVLVRAISLLPSPHLDEVGISRIEAVLPQCDLNNLSSFATSVLRWIQHDHMYLDNMTAKQLKLLQKLDHYGRQRLQHSNSLDLLRKELKSLKGNTFPESLLEEMIATLQHFMDDINYINVGEIASFISSTDYLSTLLLDRIASVAVQQIEKIHPFTIPAIIRPFSVLNYDPPQRDEFLGTCVQHLNSYLGILDPFILVFLGFSLATLEYFPEDLLKAIFNIKFLARLDSQLEILSPSRSARVQFHLMELNRSVCLECPEFQIPWFHDRFCQQYNKGIGGMDGTQQQIFKMLAEVLGGINCVKASVLTPYYHKVDFECILDKRKKPLPYGSHNIALGQLPEMPWESNIEIVGSRLPPGAERIALEFLDSKALCRNIPHMKGKSAMKKRHLEILGYRVIQISQFEWNSMALSTKDARMDYLRECIFGEVKSCL [FASTKD1]				49.9
MSKRNQVSYVRPAEPAFLARFKERVGYREGPTVETKRIQPQPPDEDGDHSDKEDEQPQVVVLKKGDLSVEEVMKIKAEIKAAKADEEPTPADGRIIYRKPVKHPSDEKYSGLTASSKKKKPNEDEVNQDSVKKNSQKQIKNSSLLSFDNEDENE [KIAA1143]				52
MAAEADGPLKRLLVPILLPEKCYDQLFVQWDLLHVPCLKILLSKGLGLGIVAGSLLVKLPQVFKILGAKSAEGLSLQSVMLELVALTGTMVYSITNNFPFSSWGEALFLMLQTITICFLVMHYRGQTVKGVAFLACYGLVLLVLLSPLTPLTVVTLLQASNVPAVVVGRLLQAATNYHNGHTGQLSAITVFLLFGGSLARIFTSIQETGDPLMAGTFVVSSLCNGLIAAQLLFYWNAKPPHKQKKAQ [MPDU1]			59.2	59.2
